Patent US8246957

Experiments:
[1] = target: gp120 of HIV-1 primary isolate SF-162 (clade B) (HIV-1 strain SF-162); assay: cell-based or functional assay
[2] = target: gp120 of HIV-1 primary isolate BR004 (clade C) (HIV-1 strain BR004); assay: cell-based or functional assay

In the case of IgG clone b12 (antibody), the IC50, HIV-1 neutralization (p24, PBMC hosts) (µg Ab fragment/ml) [1] is reported as 1.1, the IC90, HIV-1 neutralization (p24, PBMC hosts) (µg Ab fragment/ml) [1] is reported as 14.1 and the IC50, HIV-1 neutralization (p24, PBMC hosts) (µg Ab fragment/ml) [2] is reported as 9. For the same substance, the IC90, HIV-1 neutralization (p24, PBMC hosts) (µg Ab fragment/ml) [2] was 333.
